Experimental data taken from FireProtDB (doi:10.1073/pnas.0911904107).

B1: Lipid A palmitoyltransferase PagP, P37001 (parent)
chain: MNVSKYVAIFSFVFIQLISVGKVFANADEWMTTFRENIAQTWQQPEHYDLYIPAITWHARFAYDKEKTDRYNERPWGGGFGLSRWDEKGNWHGLYAMAFKDSWNKWEPIAGYGWESTWRPLADENFHLGLGFTAGVTARDNWNYIPLPVLLPLASVGYGPVTFQMTYIPGTYNNGNVYFAWMRFQF

Variants of: B1
Conditions: Escherichia coli (strain K12), pH 8, 25 °C, Urea, CD, structure 1THQ, whole UniProt chain shown
[1] = Sodium phosphate 50 mM, reversible: Yes
[2] = sodium phosphate buffer, transition: 2, reversible: yes

Variant	ddG of mutation (higher = less stable) [1] [kcal/mol]	denaturant midpoint (higher = more stable) [1] [M]	unfolding free energy [1] [kcal/mol]	ddG of mutation (higher = less stable) [2] [kcal/mol]	denaturant midpoint (higher = more stable) [2] [M]	unfolding free energy [2] [kcal/mol]	denaturant m value [1] [kcal/mol/M]
Y178A	0.55	8.43	13.8	5.95	8.43	8.43	–
Y112G	–	–	–	6.14	8.24	8.24	–
Q185A	-0.18	8.88	14.6	5.5	8.88	8.88	1.64
M182A	0.77	8.3	13.6	–	–	–	–
W42A	–	–	–	6.21	8.17	8.17	–
